The source of these data is patent US20240200089A1 (AGRIVIDA, published 2024).

The target of assay [1] is T1, chicken interleukin 10 (chicken (Gallus gallus), UniProt Q6A2H4 22-174).
T1 sequence: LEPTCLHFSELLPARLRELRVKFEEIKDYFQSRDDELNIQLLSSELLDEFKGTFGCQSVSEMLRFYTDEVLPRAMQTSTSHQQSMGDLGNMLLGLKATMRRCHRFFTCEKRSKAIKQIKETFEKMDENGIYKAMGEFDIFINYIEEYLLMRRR
In words: cell-based or functional assay.

The target of assay [2] is T1, chicken interleukin 10. As to the kind of experiment: ELISA, sdAB titrated on cIL-10 coated plates.

B1: chIL10sdAB1F11 (VHH, not shown: small tags and cut ends)
VHH: QVQLQEFGGGLVQPGGSLRLSCAASGRTGSSYAMGWFRQAPGKEREFVAAISWSGGSTDYADSVKGRFTISRDNAKNTMYLQMNSLKPEDTAVYYCAVDRNLFKLRVAVQEYTNLGQGTQVTVSS
notes: Llama single domain antibody; also called 86-IL-bR2-1F11
Regarding B1, the “apparent EC50, recovery of IFN-γ secretion in primary chicken spleen cells treated with ConA and cIL-10” value (from here on “apparent EC50, recovery”) in the assay with chicken interleukin 10 [1] worked out at 60 nM. The concentration for a half-maximal effect (EC50) with chicken interleukin 10 [2] was about 15 nM.

B2: chIL10sdAB1D6 (VHH)
VHH: QVQLQASGGGLVQAGGSLRLSCQASESISSINTMGWFRQASGEEREFVAAIESGGATAYAESAKGRFTISRDNAKNTVYLQMNSLKPEDTAVYYCAAGVPTYDDDAMPISWRFWGRGTLVTVSS
notes: Llama single domain antibody; The construct used in the ELISA is not described; also called 44-IL-bR2-1D6
As to B2, the concentration giving a half-maximal response (EC50) with chicken interleukin 10 [2] is about 100 nM.

B3: chIL10sdAB1B9 (VHH)
VHH: QVQLQESGGGLVQAGGSLRLSCAASGRTFSSYAWGWFRQAPGKEREFVARISFSGGHTYYSDSVKGRFTISRDNAKNTVYLQMNSLKPEDTAVYYCAADPTPYGLRNERNYPYWGQGTQVTVSS
notes: Llama single domain antibody; The construct used in the ELISA and the cell assay is not described
With B3, the “apparent EC50, recovery” value with chicken interleukin 10 [1] amounted to 40 nM. In the assay with chicken interleukin 10 [2], the EC50 was about 35 nM.

B4: chIL10sdAB1H1 (VHH)
VHH: QVQLQASGGGLVQAGGSLRLSCAASGRTFNSYAWGWFRQAPGKERGFVARISFSGGHTYYSDSVKGRFTISRDNAKNSVYLQMNSLKPEDTAVYYCAADPTPYGLRNERNYHYWGQGTQVTVSS
notes: Llama single domain antibody; The construct used in the ELISA is not described
As for B4, it took 20 nM to reach a half-maximal effect in the assay with chicken interleukin 10 [2] (EC50).

B5: chIL10sdAB1A11 (VHH, not shown: small tags and cut ends)
VHH: QVQLQESGGGLVQPGGSLRLSCAASGNIFSINTMGWYRQAPGKQRELVASITTGGTTNYEDSVKGRFTISRDNAKKTVYLQMNRLKPEDTAVYYCNHRRSYSGRDYPVYGMDYWGKGTLVTVSS
notes: Llama single domain antibody; also called 1A11 sdAB; 81-IL-bR2-1A11
As to B5, the “apparent EC50, recovery” value in the assay with chicken interleukin 10 [1] came to 25 nM. The same molecule showed an EC50 in the assay with chicken interleukin 10 [2] of about 1 nM.

As usually defined, the EC50 is the midpoint of the concentration-response curve. Low values mean higher potency in that assay, high ones lower potency in that assay.
